Experimental data reported in patent US20250002564A1 (HOSPITAL FOR SICK CHILDREN, published 2025).
Where two headings read alike, the source gives them in different places.

B1: mAb 236 (antibody, V domains shown)
VH: QVQLVQSGAEVKKPGASVKVSCKASGGTFTSYGINWVRQAPGQGLEWMGWMNPNSGNTGYAQKFQGRVTMTRDTSTSTVYMELSSLRSEDTAVYYCASRGIQLLPRGMDVWGQGTTVTVSS
VL: not shown
notes: also called IgG 236; Antibody 236
B2: 4A8 IgG (antibody, V domains shown)
VH: EVQLVESGAEVKKPGASVKVSCKVSGYTLTELSMHWVRQAPGKGLEWMGGFDPEDGETMYAQKFQGRVTMTEDTSTDTAYMELSSLRSEDTAVYYCATSTAVAGTPDLFDYYYGMDVWGQGTTVTVSS
VL: EIVMTQSPLSSPVTLGQPASISCRSSQSLVHSDGNTYLSWLQQRPGQPPRLLIYKISNRFSGVPDRFSGSGAGTDFTLKISRVEAEDVGVYYCTQATQFPYTFGQGTKVDIK
notes: also called IgG 4A8

Experiments:
[1] = molecular target: T1, SARS-CoV-2 receptor binding domain (RBD), wild type, His-tagged (SARS-CoV-2, UniProt P0DTC2 319-541); assay: method and format not given
T1 construct: domain: RBD; also called His-tagged RBD; BEI NR52309

[2] = molecular target: T1, SARS-CoV-2 receptor binding domain …; assay: method and format not given; remark: listed apart in the source
[3] = molecular target: T1, SARS-CoV-2 receptor binding domain …; assay: BLI competition on His-tagged RBD, after 1st Ab 46
[4] = molecular target: T1, SARS-CoV-2 receptor binding domain …; assay: BLI competition on His-tagged RBD, after 1st Ab 52
[5] = molecular target: T1, SARS-CoV-2 receptor binding domain …; assay: BLI competition on His-tagged RBD, after 1st Ab 80
[6] = molecular target: T1, SARS-CoV-2 receptor binding domain …; assay: BLI competition on His-tagged RBD, after 1st Ab 82
[7] = molecular target: T1, SARS-CoV-2 receptor binding domain …; assay: BLI competition on His-tagged RBD, after 1st Ab 236
[8] = molecular target: T1, SARS-CoV-2 receptor binding domain …; assay: BLI competition on His-tagged RBD, after 1st Ab 298
[9] = molecular target: T1, SARS-CoV-2 receptor binding domain …; assay: BLI competition on His-tagged RBD, after 1st Ab 324
[10] = molecular target: T2, SARS-CoV-2 RBD mutant L452R (SARS-CoV-2, UniProt P0DTC2 319-541); assay: BLI, IgG on mutated RBD compared with WT RBD; negative = decreased
T2 construct: domain: RBD; also called mutated RBD L452R

[11] = molecular target: T3, SARS-CoV-2 prefusion S ectodomain (Spike trimer), His-tagged (SARS-CoV-2, UniProt P0DTC2 14-1213); assay: BLI, His-tagged Spike on Ni-NTA sensor
T3 construct: extracellular domain; also called SARS-CoV-2 Spike; S protein

Binder | Kd [1] [nM] | Kd [2] [nM] | RBD binding of 2nd Ab after 1st Ab (heat map) [3] | RBD binding of 2nd Ab after 1st Ab (heat map) [4] | RBD binding of 2nd Ab after 1st Ab (heat map) [5] | RBD binding of 2nd Ab after 1st Ab (heat map) [6] | RBD binding of 2nd Ab after 1st Ab (heat map) [7] | RBD binding of 2nd Ab after 1st Ab (heat map) [8] | RBD binding of 2nd Ab after 1st Ab (heat map) [9] | Affinity change vs WT RBD (fold-change) [10] | Kd [11] [nM] | koff [11] [s⁻¹] | kon [11] [M⁻¹ s⁻¹]
B1 | 145 | 145 | 1.2 | 1 | 0.1 | 0.2 | 0.3 | 0.2 | 0.4 | -4.1 |  |  | 
B2 |  |  |  |  |  |  |  |  |  |  | 1.42 | 0.000191 | 133000
